Measured values published in article PMC6692024.

Key:
[1] = system: GST-DEK PBD2-Mut2 (Homo sapiens); assay: EMSA (agarose); conditions: only slightly reduced; indistinguishable from WT at higher molar ratios; 20 mM Hepes-KOH pH 7.6, 100 mM NaCl, 10 mM NaHSO3, 1 mM EDTA, 1 ug/ml BSA; 30 ul, 1 h at 37 C; 0.6% agarose gel in TBE. PAR overlay assays (poly(ADP-ribose) …); scale: DEK:DNA molar ratio at first detectable shift
[2] = system: GST-DEK WT (Homo sapiens); assay: EMSA (agarose); conditions: 20 mM Hepes-KOH pH 7.6, 100 mM NaCl, 10 mM NaHSO3, 1 mM EDTA, 1 ug/ml BSA; 30 ul, 1 h at 37 C; 0.6% agarose gel in TBE. PAR overlay assays (poly(ADP-ribose) …); scale: DEK:DNA molar ratio at first detectable shift

plasmid DNA (unnamed)
binding signal [1]: 112 | binding signal [2]: 84
